Measured values from US20210380714A1.

Assays:
[1] = target: native human MSLN expressed on the cell surface (N87 / NCI-N87 tumor cells) (human) (UniProt Q13421); experiment: KinExA, native hu MSLN on cells
[2] = target: recombinant human soluble MSLN (rHuMSLN sol.) (human) (UniProt Q13421); experiment: Biacore, soluble human MSLN
[3] = target: native human MSLN expressed on the cell surface (N87 / NCI-N87 tumor cells) (human) (UniProt Q13421); experiment: KinExA on N87 cells compared with Biacore on rHuMSLN sol.
[4] = target: recombinant human soluble MSLN (rHuMSLN sol.) (human) (UniProt Q13421); experiment: Biacore; 237 captured on the sensor chip, rHuMSLN sol. in solution
[5] = target: native human MSLN expressed on the cell surface (N87 / NCI-N87 tumor cells) (human) (UniProt Q13421); experiment: KinExA equilibrium binding to N87 tumor cells expressing native human MSLN

Chain of native human MSLN expressed on the cell surface (N87 / NCI-N87 tumor cells) (human) (Q13421 296-606 limits assumed): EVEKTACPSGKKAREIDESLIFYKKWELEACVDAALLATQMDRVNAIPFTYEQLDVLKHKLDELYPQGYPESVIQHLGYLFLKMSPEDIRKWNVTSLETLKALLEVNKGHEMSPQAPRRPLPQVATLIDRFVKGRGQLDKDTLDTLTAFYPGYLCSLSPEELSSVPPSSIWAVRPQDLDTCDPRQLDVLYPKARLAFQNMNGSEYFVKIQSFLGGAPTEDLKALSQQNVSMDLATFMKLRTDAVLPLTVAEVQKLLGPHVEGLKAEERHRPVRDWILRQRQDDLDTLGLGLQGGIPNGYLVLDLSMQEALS
Chain of recombinant human soluble MSLN (rHuMSLN sol.) (human) (Q13421 296-606 limits assumed): as above

Binder | Kd [1] | Kd [2] | fold better binding than to soluble MSLN [3] | Kd [4] | Kd [5]
158.3 (antibody, V domains shown) VH: QVQLQESGPGLVKPSETLSLTCTVSGGSIISHYWSWIRQPPGKGLEWIGYIYYSGSTNYNPSLKSRVTISVDTSKNQFSLKLTSVTAADTAVYYCARDGWSAFDYWGQGTLVTVSS VL: DIQMTQSPSSLSASVGDRVTITCRASQGIRNALGWYQQKPGKAPKRLIYAASSLQSGVPSRFSGSGSGTEFTLTISSLQPEDFATYYCLQHNSYPRTFGQGTKVEIRR | 0.0122 nM | 2.4 nM | – | – | –
151 (antibody, V domains shown) VH: QVQLQESGPGLVKPSETLSLTCTVSGGSISSYYWSWIRQPPGKGLEWIGYIYYSGSTNYNPSLKSRVTISVDTSKNQFSLKLSSVTAADTAVYYCARVDYKAFDIWGQGTMVTVSS VL: DIQMTQSPSSLSASVGDRVTITCRASQGIRNDLHWYQQKPGKAPKRLIYAASSLQSGVPSRFSGSGSGTEFTLTISSLQPEDFATYYCLQHYSYPWTFGQGTKVEIK | 0.03 nM | 17.4 nM | – | – | –
Ab237 (Hu-anti-huMesothelin-2.37-IgG1) (antibody, V domains shown) VH: QVQLQESGPGLVKPSQTLSLTCTVSGGSINNNNYYWTWIRQHPGKGLEWIGYIYYSGSTFYNPSLKSRVTISVDTSKTQFSLKLSSVTAADTAVYYCAREDTMTGLDVWGQGTTVTVSS VL: DIQMTQSPSSLSASVGDRVTITCRASQSINNYLNWYQQKPGKAPTLLIYAASSLQSGVPSRFSGSRSGTDFTLTISSLQPEDFAAYFCQQTYSNPTFGQGTKVEVK | – | – | 30 fold | 0.097 nM | 0.0035 nM
1.33.1 (antibody, V domains shown) VH: QVQLQESGPGLVKPSQTLSLTCTVSGGSISGDGHFWSWIRQHPGKGLEWIGYIYYSGSTYYNPSLKSRVTISVDTSKNQFSLKLSSVTAADTAVYYCARLRGGYKFDYWGQGTLVTVSS VL: DIVMTQTPLSLSVAPGQPASISCQSSLSLQHSNGKTYLYWYLQKPGQPPQLLIYEVSNRFSGVPDRFSGSGSGTDFTLKISRVEAEDVGIYYCMQSKQLPCSFGQGTKLEIK | – | 0.965 nM | – | – | –
